Data from publication PMC10119932.
pKd: −log10 of the molar value.

Target: Human FcRn (human) (UniProt P55899)
Test: BLI; human FcRn immobilised, antibody or ADC as analyte; performed as previously reported (refs. 35, 36); no conditions told

UniProt P55899, sequence (P55899 24-365): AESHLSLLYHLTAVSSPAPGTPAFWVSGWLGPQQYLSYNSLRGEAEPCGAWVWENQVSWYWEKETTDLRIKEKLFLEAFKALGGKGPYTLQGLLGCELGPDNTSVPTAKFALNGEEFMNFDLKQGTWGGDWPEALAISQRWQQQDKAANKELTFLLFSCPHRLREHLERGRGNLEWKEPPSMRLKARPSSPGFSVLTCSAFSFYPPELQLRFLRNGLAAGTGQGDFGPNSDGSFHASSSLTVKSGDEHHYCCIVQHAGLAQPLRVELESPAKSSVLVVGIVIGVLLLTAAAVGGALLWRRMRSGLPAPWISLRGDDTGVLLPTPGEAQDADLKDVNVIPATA

Substance	pKd	koff	kon
Trastuzumab (Herceptin), human IgG1 (antibody)	8.25	0.00377 s⁻¹	667000 M⁻¹ s⁻¹
Trastuzumab-K248-MMAE (5a) (antibody)	8.25	0.000848 s⁻¹	152000 M⁻¹ s⁻¹
Trastuzumab-K288-MMAE (5b) (antibody)	8.14	0.00383 s⁻¹	530000 M⁻¹ s⁻¹
